± gives the uncertainty stated by the source.
Test: protein stability index of a GFP-peptide fusion (yeast GPS) (PSI 1-4); higher = more stable; sorted into four equal gates, so the index is relative within each strain
Summary of the method: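 Plasmids in a pooled yeast library fused tiled 17-residue yeast protein peptides downstream of GFP and also expressed Cherry. Mid-log cultures grown without leucine were sorted into four equal gates by GFP/Cherry fluorescence ratio. Each gate's plasmids were PCR-amplified and Illumina-sequenced, and reads were matched to strains by barcodes. The protein stability index is derived by multiplying each gate's read frequency by its gate number and summing the results.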

Sequence | protein stability index (doa10∆) | protein stability index (pdr5∆) | protein stability index (san1∆) | protein stability index (ubr1∆)
QPQQQLGDMENNLEKYP [RTT102] | 3.54 ± 0.092 | 3.15 ± 0.12 | 3.62 ± 0.077 | 3.33 ± 0.1
YESIATYASVTGLFTLE [RPN7] |  |  |  | 1.96 ± 0.29
KKEANLFPEQQTKEIKT [RPL6B] | 2.62 ± 0.08 | 3.25 ± 0.074 | 2.56 ± 0.082 | 3.23 ± 0.076
YSKIKHLGLDDPQDVFN [SIR2] | 2.77 ± 0.18 | 3.22 ± 0.19 | 3.3 ± 0.14 | 3.24 ± 0.096
LRLTEQKSPKIRDPLTQ [RPC82] | 1.6 ± 0.071 | 1.66 ± 0.041 | 1.91 ± 0.12 | 1.92 ± 0.045
TTVQVAEEAIVNAMRVL [PRE4] | 2.91 ± 0.12 | 2.72 ± 0.091 | 1.88 ± 0.27 | 2.54 ± 0.09
DVNDVLTKYIRSKNLIF [GRR1] | 2.68 ± 0.066 | 2.78 ± 0.08 | 2.19 ± 0.083 | 2.68 ± 0.043
KKVLEIDFFKTDDSFED [BRN1] | 2.09 ± 0.041 | 2.08 ± 0.055 | 2.46 ± 0.058 | 2.18 ± 0.042
DTTANNGKVQYFLRRQY [YJL039C/NUP192] | 2.71 ± 0.095 | 2.65 ± 0.14 | 2.83 ± 0.15 | 2.98 ± 0.091
PKAMTDTDNECVAAWGV [HRT1] | 3.23 ± 0.12 | 3.48 ± 0.17 | 3.03 ± 0.13 | 3.05 ± 0.042
HPIRLYTRYLDRIYMLF [PRP8] | 2.63 ± 0.067 | 1.76 ± 0.063 | 2.29 ± 0.1 | 2.4 ± 0.042
IDGCVKIGDLGLARKFH [SSN3] | 2.98 ± 0.078 | 3.33 ± 0.08 | 3.14 ± 0.058 | 3.37 ± 0.043
ARSIDVEKGVNPTKSKE [ECM29] | 3.32 ± 0.26 | 3.51 ± 0.24 |  | 3.2 ± 0.29
KRSQKKHKKKHLKHENA [RPB4] | 3.03 ± 0.044 | 2.96 ± 0.052 | 3.09 ± 0.037 | 3.25 ± 0.043
GAFTIALAYAGTGNNSA [RPN2] | 2.09 ± 0.068 | 2.32 ± 0.083 | 1.99 ± 0.099 | 2.15 ± 0.053
IEKGSTFGINLIYVNPF [FAS1] | 2.58 ± 0.06 | 2.61 ± 0.068 | 2.71 ± 0.052 | 2.78 ± 0.04
FNSFRRFKSQFLYVLIP [QCR8] | 1.63 ± 0.1 | 1.69 ± 0.069 | 1.56 ± 0.12 | 1.4 ± 0.054
KMLSCAGADRLQQGMRG [RPL10] | 3.43 ± 0.12 | 3.28 ± 0.13 | 2.98 ± 0.11 | 3.32 ± 0.085
DARGVIGVIAGGGRVDK [RPL2A] | 3.18 ± 0.093 | 3.11 ± 0.11 | 3.06 ± 0.11 | 2.86 ± 0.071
PEGRLYQVEYAFKATNQ [SCL1] | 2.65 ± 0.086 | 2.88 ± 0.067 | 1.78 ± 0.1 | 2.32 ± 0.062
HILAVKKMMNTLVHTRV [SSN2] | 2.25 ± 0.056 | 2.03 ± 0.062 | 2.06 ± 0.086 | 1.34 ± 0.059
EEKVLSTRLKKACKTAD [SRP68] | 3.18 ± 0.087 | 3.22 ± 0.077 | 3.56 ± 0.14 | 3.21 ± 0.075
CEKWAASSWAKKIAQRE [RPL14A] | 2.35 ± 0.089 | 3.16 ± 0.12 | 2.24 ± 0.17 | 2.06 ± 0.062
PWYNNPVSCIIQNDEEY [PRP8] | 1.88 ± 0.13 | 2.05 ± 0.094 | 2.43 ± 0.13 | 1.05 ± 0.12
NNRQLPYLVANVVEVMD [RPT5] | 2.4 ± 0.11 | 2.78 ± 0.07 | 2.58 ± 0.14 | 2.71 ± 0.074
VIFNDNVTETYSVYLIH [SIR3] | 2.35 ± 0.12 | 2.42 ± 0.09 | 2.72 ± 0.072 | 2.28 ± 0.12
QLEDESSRLEFVKGISR [YML103C/NUP188] | 3.45 ± 0.095 | 3.2 ± 0.11 | 3.33 ± 0.067 | 3.21 ± 0.099

Sequence | protein stability index (doa10∆) | protein stability index (pdr5∆) | protein stability index (san1∆) | protein stability index (ubr1∆)
GVWVRYDSRSGTHNMYK [RPL20A] |  | 2.3 ± 0.26 | 3.1 ± 0.29 | 
TDTSTTATAATNGNNAG [MED6] | 3.2 ± 0.29 | 3.06 ± 0.13 | 3.39 ± 0.091 | 3.29 ± 0.096
KFQLKKVLCLAVAVGNV [RPL1A] | 1.63 ± 0.047 | 1.25 ± 0.051 | 1.27 ± 0.09 | 1.15 ± 0.033
TRYELYIKNILEAPVKS [YLR335W/NUP2] | 1.67 ± 0.045 | 2.1 ± 0.054 | 1.66 ± 0.087 | 1.56 ± 0.057
VVSAVGEARNDIENKEE [YAR002W/NUP60] | 2.92 ± 0.056 | 3.17 ± 0.066 | 3.08 ± 0.041 | 2.9 ± 0.076
HVTQEDFELAVGKVMNK [RPT6] | 2.83 ± 0.17 | 2.82 ± 0.13 | 2.62 ± 0.13 | 2.69 ± 0.15
TYDENDDFFKELAKEAK [ESC2] | 3.01 ± 0.11 | 2.83 ± 0.08 | 2.65 ± 0.073 | 3.08 ± 0.075
SCTLLERGHPKDNARIY [POP1] | 1.87 ± 0.056 | 2.15 ± 0.064 | 2.76 ± 0.055 | 2.99 ± 0.063
RTFRLNECVCTPYNADF [RPO31] | 2.25 ± 0.045 | 2.4 ± 0.049 | 2.77 ± 0.054 | 2.28 ± 0.065
DDLQKFNGIENQSAYEW [ISW2] | 3.2 ± 0.21 | 3.23 ± 0.21 | 3.29 ± 0.1 | 3.32 ± 0.14
KYQKALHYLKKFKHIDD [SRP72] | 2.04 ± 0.1 | 2.96 ± 0.12 | 2.57 ± 0.17 | 2.31 ± 0.14
RLTFKPWVVYLQILAML [YMR129W/POM152] | 1.23 ± 0.07 | 1.22 ± 0.06 | 1.1 ± 0.11 | 1.05 ± 0.049
DSENNEENSSSNGNNLP [RGR1] | 2.96 ± 0.061 | 2.96 ± 0.056 | 2.96 ± 0.055 | 3.06 ± 0.039
KQENSSRFTNVSVIAPE [YMR153W/NUP53] | 2.71 ± 0.065 | 2.54 ± 0.055 | 1.59 ± 0.062 | 2.49 ± 0.033
SLFSHRKHTRGDVSSGL [BRN1] | 3.28 ± 0.19 | 3.01 ± 0.17 | 3.28 ± 0.16 | 3.22 ± 0.059
FAEENITHKLTKNDAGS [BRR2] | 3.26 ± 0.084 | 3.22 ± 0.07 | 2.88 ± 0.055 | 3.46 ± 0.1
YMEKGTQLDDLQHELMI [YML103C/NUP188] | 2.62 ± 0.058 | 2.31 ± 0.059 | 2.19 ± 0.063 | 2.25 ± 0.035
HKKDRLQYLPLYAVSTF [SIR4] | 1.59 ± 0.035 | 1.66 ± 0.035 | 1.35 ± 0.054 | 1.89 ± 0.037
YQGVYSMGSILLSFVLG [YML031W/NDC1] | 2.29 ± 0.074 | 2.14 ± 0.11 | 2.58 ± 0.11 | 2.44 ± 0.12
QFAPAFLNTPNNNINEN [SSN2] | 2.92 ± 0.067 | 2.98 ± 0.063 | 2.66 ± 0.068 | 2.89 ± 0.06
QAYQFLNTFGSKICLSH [ITC1] | 2.06 ± 0.076 | 1.33 ± 0.049 | 1.63 ± 0.082 | 1.42 ± 0.054
AEQFKHQHGDKVDIFEI [FAS2] |  |  |  | 3.06 ± 0.21
QLLDIAEFKKENLADLD [LIN1] | 1.48 ± 0.092 | 1.55 ± 0.097 | 1.24 ± 0.12 | 2.95 ± 0.096
FSHPAHQQRMSRTAADI [YCG1] | 2.01 ± 0.07 | 2.15 ± 0.093 | 2.4 ± 0.074 | 2.13 ± 0.06
EISLKAHCILGIGGDHA [RPC40] | 1.16 ± 0.18 | 1.3 ± 0.16 | 1.28 ± 0.3 | 
QQRIREIGLLPEDALVN [SMC3] |  |  | 3.27 ± 0.2 | 3.25 ± 0.13

— the supplement of paper PMC9732359
